Data published in the Human Domainome abundance scans (Beltran et al. 2025).
± gives the uncertainty stated by the source.

B1: Intersectin-1, residues 909 to 971; numbered along this chain, Q15811 (parent)
chain: QGEKVEGLQAQALYPWRAKKDNHLNFNKNDVITVLEQQDMWWFGEVQGQKGWFPKSYVKLISG

Variants of: B1
Test: abundance fitness (aPCA) (normalised: wild type 0, dead -1); higher = more abundant; growth selection in yeast, the domain comes from the species named
Conditions: Homo sapiens

**Q.** Which abundance fitness does the source give for QGEKVEGLQAQALYPWRAKKDNHLNFNKNDVITVLEQQDMWWFGEVTGQKGWFPKSYVKLISG [Q47T] here?
**A.** The abundance fitness was -0.014 ± 0.14.

**Q.** With QGEKVEGLQAQALYPWRAKKDNHLNFNKNDVITVLEQQDMWWFGEVRGQKGWFPKSYVKLISG [Q47R] as the variant, how does the abundance fitness read?
**A.** The abundance fitness was -0.151 ± 0.088.

**Q.** For QGEKVEGLQAQALYPWRAKKDNHLNFNKNDVITVLEQQDMWWFGEVVGQKGWFPKSYVKLISG [Q47V], which abundance fitness is on record?
**A.** Its abundance fitness is -0.097 ± 0.076.

**Q.** Which abundance fitness does the source give for QGEKVEGLQAQALYPWRAKKDNHLNFNKNDVITVLEQQDMWWFGEVSGQKGWFPKSYVKLISG [Q47S] here?
**A.** The abundance fitness was -0.167 ± 0.1.

**Q.** Which abundance fitness does the source give for QGEKVEGLQAQALYPWRAKKDNHLNFNKNDVITVLEQQDMWWFGEVGGQKGWFPKSYVKLISG [Q47G] here?
**A.** Its abundance fitness is -0.009 ± 0.073.

**Q.** With QGEKVEGLQAQALYPWRAKKDNHLNFNKNDVITVLEQQDMWWFGEVMGQKGWFPKSYVKLISG [Q47M] as the variant, how does the abundance fitness read?
**A.** The abundance fitness was -0.097 ± 0.1.

**Q.** For QGEKVEGLQAQALYPWRAKKDNHLNFNKNDVITVLEQQDMWWFGEVWGQKGWFPKSYVKLISG [Q47W], which abundance fitness is on record?
**A.** Its abundance fitness is -0.125 ± 0.17.

**Q.** With QGEKVEGLQAQALYPWRAKKDNHLNFNKNDVITVLEQQDMWWFGEVPGQKGWFPKSYVKLISG [Q47P] as the variant, how does the abundance fitness read?
**A.** Its abundance fitness is -0.293 ± 0.19.

**Q.** For QGEKVEGLQAQALYPWRAKKDNHLNFNKNDVITVLEQQDMWWFGEVKGQKGWFPKSYVKLISG [Q47K], which abundance fitness is on record?
**A.** Its abundance fitness is 0.027 ± 0.15.

**Q.** With QGEKVEGLQAQALYPWRAKKDNHLNFNKNDVITVLEQQDMWWFGEVLGQKGWFPKSYVKLISG [Q47L] as the variant, how does the abundance fitness read?
**A.** Its abundance fitness is -0.254 ± 0.11.

**Q.** Which abundance fitness does the source give for QGEKVEGLQAQALYPWRAKKDNHLNFNKNDVITVLEQQDMWWFGEVFGQKGWFPKSYVKLISG [Q47F] here?
**A.** Its abundance fitness is 0.133 ± 0.2.

**Q.** Which abundance fitness does the source give for QGEKVEGLQAQALYPWRAKKDNHLNFNKNDVITVLEQQDMWWFGEVYGQKGWFPKSYVKLISG [Q47Y] here?
**A.** Its abundance fitness is -0.113 ± 0.31.

**Q.** With QGEKVEGLQAQALYPWRAKKDNHLNFNKNDVITVLEQQDMWWFGEVNGQKGWFPKSYVKLISG [Q47N] as the variant, how does the abundance fitness read?
**A.** The abundance fitness was -0.084 ± 0.34.

**Q.** For QGEKVEGLQAQALYPWRAKKDNHLNFNKNDVITVLEQQDMWWFGEVQGGKGWFPKSYVKLISG [Q49G], which abundance fitness is on record?
**A.** Its abundance fitness is -0.005 ± 0.14.

**Q.** Which abundance fitness does the source give for QGEKVEGLQAQALYPWRAKKDNHLNFNKNDVITVLEQQDMWWFGEVQGRKGWFPKSYVKLISG [Q49R] here?
**A.** Its abundance fitness is -0.031 ± 0.081.

**Q.** With QGEKVEGLQAQALYPWRAKKDNHLNFNKNDVITVLEQQDMWWFGEVQGYKGWFPKSYVKLISG [Q49Y] as the variant, how does the abundance fitness read?
**A.** Its abundance fitness is -0.303 ± 0.31.

**Q.** Which abundance fitness does the source give for QGEKVEGLQAQALYPWRAKKDNHLNFNKNDVITVLEQQDMWWFGEVQGSKGWFPKSYVKLISG [Q49S] here?
**A.** The abundance fitness was -0.232 ± 0.14.

**Q.** For QGEKVEGLQAQALYPWRAKKDNHLNFNKNDVITVLEQQDMWWFGEVQGDKGWFPKSYVKLISG [Q49D], which abundance fitness is on record?
**A.** The abundance fitness was -0.466 ± 0.3.

**Q.** Which abundance fitness does the source give for QGEKVEGLQAQALYPWRAKKDNHLNFNKNDVITVLEQQDMWWFGEVQGEKGWFPKSYVKLISG [Q49E] here?
**A.** Its abundance fitness is 0.222 ± 0.29.

**Q.** For QGEKVEGLQAQALYPWRAKKDNHLNFNKNDVITVLEQQDMWWFGEVQGIKGWFPKSYVKLISG [Q49I], which abundance fitness is on record?
**A.** Its abundance fitness is -0.208 ± 0.3.

**Q.** With QGEKVEGLQAQALYPWRAKKDNHLNFNKNDVITVLEQQDMWWFGEVQGMKGWFPKSYVKLISG [Q49M] as the variant, how does the abundance fitness read?
**A.** The abundance fitness was -0.052 ± 0.21.

**Q.** Which abundance fitness does the source give for QGEKVEGLQAQALYPWRAKKDNHLNFNKNDVITVLEQQDMWWFGEVQGCKGWFPKSYVKLISG [Q49C] here?
**A.** The abundance fitness was 0.046 ± 0.16.

**Q.** For QGEKVEGLQAQALYPWRAKKDNHLNFNKNDVITVLEQQDMWWFGEVQGNKGWFPKSYVKLISG [Q49N], which abundance fitness is on record?
**A.** Its abundance fitness is -0.403 ± 0.38.

**Q.** With QGEKVEGLQAQALYPWRAKKDNHLNFNKNDVITVLEQQDMWWFGEVQGVKGWFPKSYVKLISG [Q49V] as the variant, how does the abundance fitness read?
**A.** The abundance fitness was -0.065 ± 0.098.

**Q.** For QGEKVEGLQAQALYPWRAKKDNHLNFNKNDVITVLEQQDMWWFGEVQGKKGWFPKSYVKLISG [Q49K], which abundance fitness is on record?
**A.** The abundance fitness was -0.483 ± 0.42.

**Q.** Which abundance fitness does the source give for QGEKVEGLQAQALYPWRAKKDNHLNFNKNDVITVLEQQDMWWFGEVQGHKGWFPKSYVKLISG [Q49H] here?
**A.** The abundance fitness was 0.045 ± 0.22.

**Q.** With QGEKVEGLQAQALYPWRAKKDNHLNFNKNDVITVLEQQDMWWFGEVQEQKGWFPKSYVKLISG [G48E] as the variant, how does the abundance fitness read?
**A.** The abundance fitness was 0.011 ± 0.15.

**Q.** For QGEKVEGLQAQALYPWRAKKDNHLNFNKNDVITVLEQQDMWWFGEVQYQKGWFPKSYVKLISG [G48Y], which abundance fitness is on record?
**A.** Its abundance fitness is -0.074 ± 0.21.

**Q.** For QGEKVEGLQAQALYPWRAKKDNHLNFNKNDVITVLEQQDMWWFGEVQCQKGWFPKSYVKLISG [G48C], which abundance fitness is on record?
**A.** The abundance fitness was -0.361 ± 0.15.

**Q.** Which abundance fitness does the source give for QGEKVEGLQAQALYPWRAKKDNHLNFNKNDVITVLEQQDMWWFGEVQAQKGWFPKSYVKLISG [G48A] here?
**A.** The abundance fitness was -0.208 ± 0.11.

**Q.** With QGEKVEGLQAQALYPWRAKKDNHLNFNKNDVITVLEQQDMWWFGEVQDQKGWFPKSYVKLISG [G48D] as the variant, how does the abundance fitness read?
**A.** The abundance fitness was -0.061 ± 0.18.

**Q.** With QGEKVEGLQAQALYPWRAKKDNHLNFNKNDVITVLEQQDMWWFGEVQPQKGWFPKSYVKLISG [G48P] as the variant, how does the abundance fitness read?
**A.** The abundance fitness was -0.604 ± 0.35.

**Q.** With QGEKVEGLQAQALYPWRAKKDNHLNFNKNDVITVLEQQDMWWFGEVQFQKGWFPKSYVKLISG [G48F] as the variant, how does the abundance fitness read?
**A.** Its abundance fitness is -0.522 ± 0.36.

**Q.** Which abundance fitness does the source give for QGEKVEGLQAQALYPWRAKKDNHLNFNKNDVITVLEQQDMWWFGEVQKQKGWFPKSYVKLISG [G48K] here?
**A.** Its abundance fitness is -0.053 ± 0.18.

**Q.** For QGEKVEGLQAQALYPWRAKKDNHLNFNKNDVITVLEQQDMWWFGEVQRQKGWFPKSYVKLISG [G48R], which abundance fitness is on record?
**A.** The abundance fitness was -0.224 ± 0.094.

**Q.** With QGEKVEGLQAQALYPWRAKKDNHLNFNKNDVITVLEQQDMWWFGEVQMQKGWFPKSYVKLISG [G48M] as the variant, how does the abundance fitness read?
**A.** The abundance fitness was -0.226 ± 0.17.

**Q.** With QGEKVEGLQAQALYPWRAKKDNHLNFNKNDVITVLEQQDMWWFGEVQTQKGWFPKSYVKLISG [G48T] as the variant, how does the abundance fitness read?
**A.** Its abundance fitness is -0.526 ± 0.22.

**Q.** For QGEKVEGLQAQALYPWRAKKDNHLNFNKNDVITVLEQQDMWWFGEVQVQKGWFPKSYVKLISG [G48V], which abundance fitness is on record?
**A.** Its abundance fitness is -0.584 ± 0.12.

**Q.** For QGEKVEGLQAQALYPWRAKKDNHLNFNKNDVITVLEQQDMWWFGEVQSQKGWFPKSYVKLISG [G48S], which abundance fitness is on record?
**A.** Its abundance fitness is -0.149 ± 0.097.

**Q.** For QGEKVEGLQAQALYPWRAKKDNHLNFNKNDVITVLEQQDMWWFGEVQWQKGWFPKSYVKLISG [G48W], which abundance fitness is on record?
**A.** Its abundance fitness is -0.939 ± 0.41.

**Q.** For QGEKVEGLQAQALYPWRAKKDNHLNFNKNDVITVLEQQDMWWFGEVQHQKGWFPKSYVKLISG [G48H], which abundance fitness is on record?
**A.** Its abundance fitness is -0.381 ± 0.49.

**Q.** With QGEKVEGLQAQALYPWRAKKDNHLNFNKNDVITVLEQQDMWWFGEVQQQKGWFPKSYVKLISG [G48Q] as the variant, how does the abundance fitness read?
**A.** Its abundance fitness is -0.38 ± 0.2.
